Measurements published in patent US20250109206A1.
Substitutions are numbered along the chain they refer to.

B1: Anti-CD3 Fab-001 (Fab, V domains shown)
VH: EVQLVESGGGLVQPGGSLRLSCAASGFTFNTYAMNWVRQAPGKGLEWVARIRSKYNNYATYYADSVKDRFTISRDDSQSILYLQMNSLKTEDTAVYYCVRHGNFGNSYVSWFAYWGQGTLVTVSS
VL: QAVVTQEPSLTVSPGGTVTLTCRSSTGAVTTSNYANWVQQKPDHLPRALIGGTNKRAPGTPARFSGSLLGDKAALTLSGVQPEDEAEYYCALWYSNLWVFGGGTKLTVL
B2: Anti-CD3 Fab-002 (Fab, V domains shown)
VH: B1 VH with A49G, D68G, Q78K, S79N, I80S, V99A
VL: B1 VL with T60V, L77I, V80A, E87I

Columns and labels:
[1] = biological target: human recombinant CD3 δε heterodimer (human) (UniProt P07766); test: SPR (Biacore 8K), Fab captured, CD3 δε heterodimer as analyte
Sequence of human recombinant CD3 δε heterodimer (human) (P07766 23-126, stated change not applied, chain 1 of 2): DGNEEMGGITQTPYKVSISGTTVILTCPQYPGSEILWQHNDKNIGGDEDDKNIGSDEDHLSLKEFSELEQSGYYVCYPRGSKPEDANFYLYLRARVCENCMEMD
Sequence of human recombinant CD3 δε heterodimer (human) (P04234 22-105, stated change not applied, chain 2 of 2, further chain): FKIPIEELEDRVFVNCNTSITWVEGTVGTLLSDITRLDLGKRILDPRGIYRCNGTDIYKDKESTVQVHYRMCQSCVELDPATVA

[2] = biological target: cynomolgus monkey recombinant CD3 δε heterodimer (cynomolgus) (UniProt Q95LI5); test: SPR (Biacore), Fab captured on anti-human Fab chip, cyno CD3 δε heterodimer as analyte, 1:1 binding fit
Sequence of cynomolgus monkey recombinant CD3 δε heterodimer (cynomolgus) (Q95LI5 22-117, stated change not applied, chain 1 of 2): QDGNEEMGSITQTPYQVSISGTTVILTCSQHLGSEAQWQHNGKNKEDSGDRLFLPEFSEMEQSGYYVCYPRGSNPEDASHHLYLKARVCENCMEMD
Sequence of cynomolgus monkey recombinant CD3 δε heterodimer (cynomolgus) (Q95LI8 22-105, stated change not applied, chain 2 of 2, further chain): as the sequence (P04234 22-105, stated change not applied, chain 2 of 2, further chain) above, with I5V, N15K, I20V, S32T, D33N, I34N, T64A, S74N, V83L counted along it

[3] = biological target: human recombinant CD3 δε heterodimer (human) (UniProt P07766); test: SPR (Biacore), Fab captured on anti-human Fab chip, human CD3 δε heterodimer as analyte, 1:1 binding fit

Binder | Kd [1] | Kd [2] | koff [2] | kon [2] | kon [3]
B1 | 29 nM | 28.4 nM | 0.00448 s⁻¹ | 158000 M⁻¹ s⁻¹ | 162000 M⁻¹ s⁻¹
B2 | 46 nM | 71.8 nM | 0.0113 s⁻¹ | 157000 M⁻¹ s⁻¹ | 433000 M⁻¹ s⁻¹
